Laboratory results: paper PMC10540216, “Activity Guided Azide-methyllysine Photo-trapping for Substrate Profiling of Lysine Demethylases” (Journal of the American Chemical Society, 2023)

System: KDM4A-I71AzF
Assay: CASI: photo-crosslinking with HEK293T cell extracts, StrepTactin enrichment and LC-MS/MS proteomics;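 note: lysates from HEK293T cells pretreated with a KDM4 inhibitor to raise proteome methylation, affinity-purified after ±UV, gel-resolved, trypsin-digested, with exclusive unique peptides per protein averaged per condition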
Type: binding, human
Conditions: sheet "Final results but with 0.01"

| Molecule | Fold change (+UV/-UV) |
| --- | --- |
| SMC1A_HUMAN (protein, UniProt Q14683 1-1233, looked up) Structural maintenance of …: MGFLKLIEIENFKSYKGRQIIGPFQRFTAIIGPNGSGKSNLMDAISFVLGEKTSNLRVKTLRDLIHGAPVGKPAANRAFVSMVYSEEGAEDRTFARVIVGGSSEYKINNKVVQLHEYSEELEKLGILIKARNFLVFQGAVESIAMKNPKERTALFEEISRSGELAQEYDKRKKEMVKAEEDTQFNYHRKKNIAAERKEAKQEKEEADRYQRLKDEVVRAQVQLQLFKLYHNEVEIEKLNKELASKNKEIEKDKKRMDKVEDELKEKKKELGKMMREQQQIEKEIKEKDSELNQKRPQYIKAKENTSHKIKKLEAAKKSLQNAQKHYKKRKGDMDELEKEMLSVEKARQEFEERMEEESQSQGRDLTLEENQVKKYHRLKEEASKRAATLAQELEKFNRDQKADQDRLDLEERKKVETEAKIKQKLREIEENQKRIEKLEEYITTSKQSLEEQKKLEGELTEEVEMAKRRIDEINKELNQVMEQLGDARIDRQESSRQQRKAEIMESIKRLYPGSVYGRLIDLCQPTQKKYQIAVTKVLGKNMDAIIVDSEKTGRDCIQYIKEQRGEPETFLPLDYLEVKPTDEKLRELKGAKLVIDVIRYEPPHIKKALQYACGNALVCDNVEDARRIAFGGHQRHKTVALDGTLFQKSGVISGGASDLKAKARRWDEKAVDKLKEKKERLTEELKEQMKAKRKEAELRQVQSQAHGLQMRLKYSQSDLEQTKTRHLALNLQEKSKLESELANFGPRINDIKRIIQSREREMKDLKEKMNQVEDEVFEEFCREIGVRNIREFEEEKVKRQNEIAKKRLEFENQKTRLGIQLDFEKNQLKEDQDKVHMWEQTVKKDENEIEKLKKEEQRHMKIIDETMAQLQDLKNQHLAKKSEVNDKNHEMEEIRKKLGGANKEMTHLQKEVTAIETKLEQKRSDRHNLLQACKMQDIKLPLSKGTMDDISQEEGSSQGEDSVSGSQRISSIYAREALIEIDYGDLCEDLKDAQAEEEIKQEMNTLQQKLNEQQSVLQRIAAPNMKAMEKLESVRDKFQETSDEFEAARKRAKKAKQAFEQIKKERFDRFNACFESVATNIDEIYKALSRNSSAQAFLGPENPEEPYLDGINYNCVAPGKRFRPMDNLSGGEKTVAALALLFAIHSYKPAPFFVLDEIDAALDNTNIGKVANYIKEQSTCNFQAIVISLKEEFYTKAESLIGVYPEQGDCVISKVLTFDLTKYPDANPNPNEQ | 0.4286 |
| AAAT_HUMAN (protein, UniProt Q15758 1-541, looked up) Neutral amino acid …: MVADPPRDSKGLAAAEPTANGGLALASIEDQGAAAGGYCGSRDQVRRCLRANLLVLLTVVAVVAGVALGLGVSGAGGALALGPERLSAFVFPGELLLRLLRMIILPLVVCSLIGGAASLDPGALGRLGAWALLFFLVTTLLASALGVGLALALQPGAASAAINASVGAAGSAENAPSKEVLDSFLDLARNIFPSNLVSAAFRSYSTTYEERNITGTRVKVPVGQEVEGMNILGLVVFAIVFGVALRKLGPEGELLIRFFNSFNEATMVLVSWIMWYAPVGIMFLVAGKIVEMEDVGLLFARLGKYILCCLLGHAIHGLLVLPLIYFLFTRKNPYRFLWGIVTPLATAFGTSSSSATLPLMMKCVEENNGVAKHISRFILPIGATVNMDGAALFQCVAAVFIAQLSQQSLDFVKIITILVTATASSVGAAGIPAGGVLTLAIILEAVNLPVDHISLILAVDWLVDRSCTVLNVEGDALGAGLLQNYVDRTESRSTEPELIQVKSELPLDPLPVPTEEGNPLLKHYRGPAGDATVASEKESVM | 0.25 |
| RBM10_HUMAN (protein, UniProt P98175 1-930, looked up) RNA-binding protein 10: MEYERRGGRGDRTGRYGATDRSQDDGGENRSRDHDYRDMDYRSYPREYGSQEGKHDYDDSSEEQSAEDSYEASPGSETQRRRRRRHRHSPTGPPGFPRDGDYRDQDYRTEQGEEEEEEEDEEEEEKASNIVMLRMLPQAATEDDIRGQLQSHGVQAREVRLMRNKSSGQSRGFAFVEFSHLQDATRWMEANQHSLNILGQKVSMHYSDPKPKINEDWLCNKCGVQNFKRREKCFKCGVPKSEAEQKLPLGTRLDQQTLPLGGRELSQGLLPLPQPYQAQGVLASQALSQGSEPSSENANDTIILRNLNPHSTMDSILGALAPYAVLSSSNVRVIKDKQTQLNRGFAFIQLSTIVEAAQLLQILQALHPPLTIDGKTINVEFAKGSKRDMASNEGSRISAASVASTAIAAAQWAISQASQGGEGTWATSEEPPVDYSYYQQDEGYGNSQGTESSLYAHGYLKGTKGPGITGTKGDPTGAGPEASLEPGADSVSMQAFSRAQPGAAPGIYQQSAEASSSQGTAANSQSYTIMSPAVLKSELQSPTHPSSALPPATSPTAQESYSQYPVPDVSTYQYDETSGYYYDPQTGLYYDPNSQYYYNAQSQQYLYWDGERRTYVPALEQSADGHKETGAPSKEGKEKKEKHKTKTAQQIAKDMERWARSLNKQKENFKNSFQPISSLRDDERRESATADAGYAILEKKGALAERQHTSMDLPKLASDDRPSPPRGLVAAYSGESDSEEEQERGGPEREEKLTDWQKLACLLCRRQFPSKEALIRHQQLSGLHKQNLEIHRRAHLSENELEALEKNDMEQMKYRDRAAERREKYGIPEPPEPKRRKYGGISTASVDFEQPTRDGLGSDNIGSRMLQAMGWKEGSGLGRKKQGIVTPIEAQTRVRGSGLGARGSSYGVTSTESYKETLHKTMVTRFNEAQ | 0 |
| RB12B_HUMAN (protein, UniProt Q8IXT5 1-1001, looked up) RNA-binding protein 12B: MAVVIRLLGLPFIAGPVDIRHFFTGLTIPDGGVHIIGGEIGEAFIIFATDEDARRAISRSGGFIKDSSVELFLSSKAEMQKTIEMKRTDRVGRGRPGSGTSGVDSLSNFIESVKEEASNSGYGSSINQDAGFHTNGTGHGNLRPRKTRPLKAENPYLFLRGLPYLVNEDDVRVFFSGLCVDGVIFLKHHDGRNNGDAIVKFASCVDASGGLKCHRSFMGSRFIEVMQGSEQQWIEFGGNAVKEGDVLRRSEEHSPPRGINDRHFRKRSHSKSPRRTRSRSPLGFYVHLKNLSLSIDERDLRNFFRGTDLTDEQIRFLYKDENRTRYAFVMFKTLKDYNTALSLHKTVLQYRPVHIDPISRKQMLKFIARYEKKRSGSLERDRPGHVSQKYSQEGNSGQKLCIYIRNFPFDVTKVEVQKFFADFLLAEDDIYLLYDDKGVGLGEALVKFKSEEQAMKAERLNRRRFLGTEVLLRLISEAQIQEFGVNFSVMSSEKMQARSQSRERGDHSHLFDSKDPPIYSVGAFENFRHQLEDLRQLDNFKHPQRDFRQPDRHPPEDFRHSSEDFRFPPEDFRHSPEDFRRPREEDFRRPSEEDFRRPWEEDFRRPPEDDFRHPREEDWRRPLEEDWRRPLEEDFRRSPTEDFRQLPEEDFRQPPEEDLRWLPEEDFRRPPEEDWRRPPEEDFRRPLQGEWRRPPEDDFRRPPEEDFRHSPEEDFRQSPQEHFRRPPQEHFRRPPPEHFRRPPPEHFRRPPPEHFRRPPPEHFRRPPPEHFRRPPPEHFRRPPQEHFRRPPQEHFRRSREEDFRHPPDEDFRGPPDEDFRHPPDEDFRSPQEEDFRCPSDEDFRQLPEEDLREAPEEDPRLPDNFRPPGEDFRSPPDDFRSHRPFVNFGRPEGGKFDFGKHNMGSFPEGRFMPDPKINCGSGRVTPIKIMNLPFKANVNEILDFFHGYRIIPDSVSIQYNEQGLPTGEAIVAMINYNEAMAAIKDLNDRPVGPRKVKLTLL | 0.8462 |
| NOMO1_HUMAN (protein, UniProt Q15155 32-1222, looked up) BOS complex subunit NOMO1: SEDIVVGCGGFVKSDVEINYSLIEIKLYTKHGTLKYQTDCAPNNGYFMIPLYDKGDFILKIEPPLGWSFEPTTVELHVDGVSDICTKGGDINFVFTGFSVNGKVLSKGQPLGPAGVQVSLRNTGTEAKIQSTVTQPGGKFAFFKVLPGDYEILATHPTWALKEASTTVRVTNSNANAASPLIVAGYNVSGSVRSDGEPMKGVKFLLFSSLVTKEDVLGCNVSPVPGFQPQDESLVYLCYTVSREDGSFSFYSLPSGGYTVIPFYRGERITFDVAPSRLDFTVEHDSLKIEPVFHVMGFSVTGRVLNGPEGDGVPEAVVTLNNQIKVKTKADGSFRLENITTGTYTIHAQKEHLYFETVTIKIAPNTPQLADIIATGFSVCGQISIIRFPDTVKQMNKYKVVLSSQDKDKSLVTVETDAHGSFCFKAKPGTYKVQVMVPEAETRAGLTLKPQTFPLTVTNRPMMDVAFVQFLASVSGKVSCLDTCGDLLVTLQSLSRQGEKRSLQLSGKVNAMTFTFDNVLPGKYKISIMHEDWCWKNKSLEVEVLEDDMSAVEFRQTGYMLRCSLSHAITLEFYQDGNGRENVGIYNLSKGVNRFCLSKPGVYKVTPRSCHRFEQAFYTYDTSSPSILTLTAIRHHVLGTITTDKMMDVTVTIKSSIDSEPALVLGPLKSVQELRREQQLAEIEARRQEREKNGNEEGEERMTKPPVQEMVDELQGPFSYDFSYWARSGEKITVTPSSKELLFYPPSMEAVVSGESCPGKLIEIHGKAGLFLEGQIHPELEGVEIVISEKGASSPLITVFTDDKGAYSVGPLHSDLEYTVTSQKEGYVLTAVEGTIGDFKAYALAGVSFEIKAEDDQPLPGVLLSLSGGLFRSNLLTQDNGILTFSNLSPGQYYFKPMMKEFRFEPSSQMIEVQEGQNLKITITGYRTAYSCYGTVSSLNGEPEQGVAMEAVGQNDCSIYGEDTVTDEEGKFRLRGLLPGCVYHVQLKAEGNDHIERALPHHRVIEVGNNDIDDVNIIVFRQINQFDLSGNVITSSEYLPTLWVKLYKSENLDNPIQTVSLGQSLFFHFPPLLRDGENYVVLLDSTLPRSQYDYILPQVSFTAVGYHKHITLIFNPTRKLPEQDIAQGSYIALPLTLLVLLAGYNHDKLIPLLLQLTSRLQGVRALGQAASDNSGPEDAKRQAKKQKTRRT | 0 |
| SYIM_HUMAN (protein, UniProt Q9NSE4 49-1012, looked up) Isoleucine--tRNA ligase, …: SNHQPNSNSGRYRDTVLLPQTSFPMKLLGRQQPDTELEIQQKCGFSELYSWQRERKVKTEFCLHDGPPYANGDPHVGHALNKILKDIANRFHMMNGSKIHFVPGWDCHGLPIEIKVLSELGREAQNLSAMEIRKKARSFAKAAIEKQKSAFIRWGIMADWNNCYYTFDGKYEAKQLRTFYQMYDKGLVYRSYKPVFWSPSSRTALAEAELEYNPEHVSRSIYVKFPLLKPSPKLASLIDGSSPVSILVWTTQPWTIPANEAVCYMPESKYAVVKCSKSGDLYVLAADKVASVASTLETTFETISTLSGVDLENGTCSHPLIPDKASPLLPANHVTMAKGTGLVHTAPAHGMEDYGVASQHNLPMDCLVDEDGVFTDVAGPELQNKAVLEEGTDVVIKMLQTAKNLLKEEKLVHSYPYDWRTKKPVVIRASKQWFINITDIKTAAKELLKKVKFIPGSALNGMVEMMDRRPYWCISRQRVWGVPIPVFHHKTKDEYLINSQTTEHIVKLVEQHGSDIWWTLPPEQLLPKEVLSEVGGPDALEYVPGQDILDIWFDSGTSWSYVLPGPDQRADLYLEGKDQLGGWFQSSLLTSVAARKRAPYKTVIVHGFTLGEKGEKMSKSLGNVIHPDVVVNGGQDQSKEPPYGADVLRWWVADSNVFTEVAIGPSVLNAARDDISKLRNTLRFLLGNVADFNPETDSIPVNDMYVIDQYMLHLLQDLANKITELYKQYDFGKVVRLLRTFYTRELSNFYFSIIKDRLYCEKENDPKRRSCQTALVEILDVIVRSFAPILPHLAEEVFQHIPYIKEPKSVFRTGWISTSSIWKKPGLEEAVESACAMRDSFLGSIPGKNAAEYKVITVIEPGLLFEIIEMLQSEETSSTSQLNELMMASESTLLAQEPREMTADVIELKGKFLINLEGGDIREESSYKVIVMPTTKEKCPRCWKYTAESSDTLCPRCAEVVSGK | 4 |
